Like-named read-outs stand apart in the source and are kept apart here. Values belong to the molecule of their own block, whether it stands above or below them.
Tests used:
[1] = target: OmpX_(1,149), double-cysteine variant of outer membrane protein X, labeled with FRET donor and acceptor dyes, unfolded (uOmpX) (UniProt P0A917); experiment: single-molecule FRET (smFRET) titration, intramolecular FRET of labeled uOmpX; 20 pM labeled uOmpX diluted from 6 M GdmCl into buffer with chaperone (Skp3 from 0.5 nM to 2.5 µM; SurA 46 nM to 25 µM); 20 mM Tris-HCl pH 8.0, 150 mM NaCl, 6 mM GdmCl, 87.5 nM LDAO; 37 °C; bound fraction from three Gaussian distributions; Hill coefficient set to 1 (Skp3) and 1.5 (SurA)
[2] = target: OmpX_(1,149), double-cysteine variant of outer membrane protein X, labeled with FRET donor and acceptor dyes, unfolded (uOmpX) (UniProt P0A917); experiment: single-molecule FRET (smFRET) titration, intramolecular FRET of labeled uOmpX; global analysis of FRET efficiency distributions at different chaperone concentrations and temperatures (25, 31, 37 °C); ΔH and ΔS from the temperature dependence of Ka; errors by bootstrapping
[3] = target: OmpX_(1,149), double-cysteine variant of outer membrane protein X, labeled with FRET donor and acceptor dyes, unfolded (uOmpX) (UniProt P0A917); experiment: single-molecule FRET (smFRET) titration, intramolecular FRET of labeled uOmpX; as the titration at 37 °C, but at 25 °C: 20 pM labeled uOmpX in buffer with Skp3 or SurA; 20 mM Tris-HCl pH 8.0, 150 mM NaCl; Hill coefficient set to 1 (Skp3) and 1.5 (SurA)
[4] = target: OmpX_(1,149), double-cysteine variant of outer membrane protein X, labeled with FRET donor and acceptor dyes, unfolded (uOmpX) (UniProt P0A917); experiment: single-molecule FRET (smFRET) titration, intramolecular FRET of labeled uOmpX; 20 pM labeled uOmpX diluted from 6 M GdmCl into buffer with chaperone (Skp3 from 0.5 nM to 2.5 µM; SurA 46 nM to 25 µM); 20 mM Tris-HCl pH 8.0, 150 mM NaCl, 6 mM GdmCl, 87.5 nM LDAO; 37 °C; bound fraction from three Gaussian distributions; Hill coefficient set to 1 (Skp3) and 1.5 (SurA); remark: listed apart in the source
[5] = target: OmpX_(1,149), double-cysteine variant of outer membrane protein X, labeled with FRET donor and acceptor dyes, unfolded (uOmpX) (UniProt P0A917); experiment: single-molecule FRET (smFRET) titration, intramolecular FRET of labeled uOmpX; global analysis of FRET efficiency distributions at different chaperone concentrations and temperatures (25, 31, 37 °C); ΔH and ΔS from the temperature dependence of Ka; errors by bootstrapping; remark: listed apart in the source

Molecule: survival factor A (SurA) (from UniProt P0ABZ6 21-428) (natural protein)
- Kd [1]: 8200 nM
- c1/2 (inverse of Ka) [1]: 407 nM
- percent of uOmpX molecules bound at ~6 µM SurA [1]: 87%
- dH [2]: -31.5 kcal/mol
- Kd [3]: 1000 nM
- c1/2 (inverse of Ka) [3]: 103 nM

- Kd [4]: 359 nM
- c1/2 (inverse of Ka) [4]: 359 nM
- percent of uOmpX molecules bound at 2.5 µM Skp3 [4]: 80%
- dH [5]: -71.2 kcal/mol
- Kd [3]: 3.6 nM
- c1/2 (inverse of Ka) [3]: 3.55 nM
B1: 17-kilodalton protein (Skp), trimer (Skp3) (natural protein)
chain: ADKIAIVNMGSLFQQVAQKTGVSNTLENEFKGRASELQRMETDLQAKMKKLQSMKAGSDRTKLEKDVMAQRQTFAQKAQAFEQDRARRSNEERGKLVTRIQTAVKSVANSQDIDLVVDANAVAYNSSDVKDITADVLKQVK

— paper PMC8892499
